Laboratory results: the DeepSol protein solubility set

Assay: soluble on expression in E. coli; label from the status in PepcDB or PDB records

Sequence	soluble on expression in E. coli
MGDTKVETISRLAQWRIENFGPCSFKKSDPFKVGIWNWHLSIERNRYLSVRLFPELSRVSKEQPPVAKFVLRVSNVGPNRRFYISPVYEKLLRTTDDCVWHVDSSFHGRFTIDVEFLDLKICPVNGGEASPVWPTDATMQSISTQTTLKCLSRMLEESILTDVIIHTADGTLSAHKAILSASSTVFKSMFHHDLMEKESSTIHIDDMSRESCMALLSYLYGNITQEEFWKHRLALLGAANKYDITDLKAACEESLMEDINSSNVLERLQEAWLYQLEKLKKGCLMYLFDFGKIYDVREEISSFFRQADRELMLEMFQEVLSVWKPV	soluble
MGEFIGNEEFQNFMKATGFIQEFTRRLLERSSKNIIKIPDNLSNVNQLTCLVKQFLREQQDLAVKVEKVQENQKNLSDFVKEKLTNCNCHVQLDVRNLLAKEMKLQDLRQDDGLDFSIKLPSTSSTDFTVSLNQVVDADAQQRFDLELLKMFGAGNIPHFQPPPDLYQHHHIPHTSQQVAQENLAMLANVPKLDDNNAYFDTFSPEKSGKRAKKRAAPSSAHEAQPNNGPYKCRDCEKTFRQKHGLNQHLLTHETNGAFECDGCGKRYSRQESVYRHQRSTPCTKYQNLTTVEHDDTGALF	not soluble
MGELFLVGMGPGDLPGLTQRAREALEGAEVVIGYSTYVKLLEEMGLLAGKEVVRKGMTEELDRAEEALERALSGQRVALVSGGDPGIYGMAAPVLELMEERGLKRVDGGVGLPGRFAGEEGEVFLAVIPGVTAANAVASLLESPLAHDTCLISLSDLLTPWPLIERRLHAAGQGDFVVVLYNPQSKRRDWQLRKSAEILLEYRPKETPAALVKSAYRKRQEVALTTLEGLREAEAGMLTTVVIGNRQSRFYEGTFLTPRGYALKYDLDTKEALPGETPGLSLVSPEGASSGRRDA	soluble
MGERIIPKNMKPMNGMLLEHLARYYFSTPYASGRVLDIACGTGYGSVMVAKTRKTEVDQVLGVDFDADVIHYAKQNYYHPKVSFLVGDAMDPYLRNQIGTFDTILSFETIEHVKDDRLFIERMRQLLKKDGTLVLSTPFGQGRGKPSDEPFHYHQLTEEEFRSLFDSFSEKEVFYQRGVTIEPKRTNVHYAFGVAVCKLEHHHHHH	not soluble
MGESHAPSKPKLDGELCLRPSSSVFLGDQQLYFTQEYLRTNSLNLKYVVYFTACQFSGPIAVAYSPRPASWYIWIRTISGRILKRDMAFNEPVFMEWTRAHCLLVLNKAGRAHIFSSLGEKISEVIFDSQMSDVHECRTFATSRGDSGIAVMDVDGQVSVVNSVSEPVIWSMKPPYSEMPTAWTAFQPHSQLTHILLIFEAVFLMGCQGESLREQSHAASWVDSNTKYVKCVVDDARSRIAMMTESGKIQIVSIDLSTCFCTVEITDHDIAKCINFGWVGNSAVFVQMSPSLIVFVNVSARRKPGDEVQIYEKMTANAKISIEPDGIRLFESTQVEFVEAASREKIAVLNRNPNEDGAHLYKAAQEMSQGTGHNSFAASTVIQDLYKAIDDCISTACDTWQPEEQKLLLKAARFGMAYTNTTPDTTKLMRAIKEIRVLNELRMVRTGIPLTHRQFRAIGETCVINRLIDMGSYSVAIKVAQWLGGETSENVDRVLLEWVRRSISKVSKSNMKMDQPALEALDEKISAKLLQFPHVSIADAARRAIEAKLPELARLFIRRETDDANHVAVLLQLNDVSAALQKASASQRPQLIHQVVRHLMNSESRSSYELAISRIPLAQCLYQDLVRQEGETRGASSRQMLALLEQASDFERQTLFHFDVAETERNPDERLNALRRAKDAAKSMGDKAIEEILNDVSAFAPLQIQRGQADMSVRDTVIEMAHDTAKVAQLKQQARLTDKQVLLWTIEGLAKKGKMEQLFDLAQKRSPIGYAPFVKACVRYKRLDEIKKYFAKVNGYPDLVAAHLAMKNYVEAAKLAYDRRDRDVLHAVHMKSHEDPTQCPRVGQFLRSLDQN	not soluble
MGESLDRCIDDINRAVDSMSTLYFKPPGIFHNAILQGASNKASIRKDITRLIKDCNHDEAYLLFKVNPEKQSVSRRDGKEGVFDYVIKRDTDMKRNRRLGRPGEKPIIHVPKEVYLNKDRLDLNNKRRRTATTSGGGLNGFIFDTDLIGSSVISNSSSGTFKALSAVFKDDPQIQRLLYALENGSVLMEEESNNQRRKTIFVEDFPTDLILKVMAEVTDLWPLTEFKQDYDQLYHNYEQLSSKLRFIKKEVLLQDDRLKTMSQYHPSSSHDVAKIIRKEKDEIRRLEMEIANLQE	not soluble
MGFGDLKSPAGLQVLNDYLADKSYIEGYVPSQADVAVFEAVSSPPPADLCHALRWYNHIKSYEKEKASLPGVKKALGKYGPADVEDTTGSGATDSKDDDDIDLFGSDDEEESEEAKRLREERLAQYESKKAKKPALVAKSSILLDVKPWDDETDMAKLEECVRSIQADGLVWGSSKLVPVGYGIKKLQIQCVVEDDKVGTDMLEEQITAFEDYVQSMDVAAFNKI	soluble
MGFHPRVPEGEVARRIAAVGAAIDRVIGERKRKISGQMIGRAVIRERRRCVWLERSEVPLDVIREGEAFVVRFANPDGSLGQPHQLLSSWMPGDPVLEHHHHHH	not soluble
MGFSDLRDKVVIVTGASMGIGRAIAERFVDEGSKVIDLSIHDPGEAKYDHIECDVTNPDQVKASIDHIFKEYGSISVLVNNAGIESYGKIESMSMGEWRRIIDVNLFGYYYASKFAIPYMIRSRDPSIVNISSVQASIITKNASAYVTSKHAVIGLTKSIALDYAPLLRCNAVCPATIDTPLVRKAAELEVGSDPMRIEKKISEWGHEHPMQRIGKPQEVASAVAFLASREASFITGTCLYVDGGLSIRAPISTPELEHHHHHH	soluble
MGGWIRNIGRYLSYLVDDTFEEYAYDVVDGIAKARTQEELLEGVYKALRLAPKLKKKAESKGCPPPRIPSPEDIEALEEKVEQLSNPKDLRKLAVSLALWAFASWNNCPKKGKGTEGGVELEHHHHHH	soluble
MGHHHHHHGSLVPRGSDVQELNSIIQRISKFDNILKDKTIINQQDLRQISWNGIPKIHRPVVWKLLIGYLPVNTKRQEGFLQRKRKEYRDSLKHTFSDQHSRDIPTWHQIEIDIPRTNPHIPLYQFKSVQNSLQRILYLWAIRHPASGYVQGINDLVTPFFETFLTEYLPPSQIDDVKIKDPSTYMVDEQITDLEADTFWCLTKLLEQITDNYIHGQPGILRQVKNLSQLVKRIDADLYNHFQNEHVEFIQFAFRWMNCLLMREFQMGTVIRMWDTYLSETSQEVTSSYSMSSNDIKPPVTPTEPRVASFVTPTKDFQSPTTALSNMTPNNAVEDSGKMRQSSLNEFHVFVCAAFLIKWSDQLMEMDFQETITFLQNPPTKDWTETDIEMLLSEAFIWQSLYKDATSHWL	soluble
MGHHHHHHHHHHSSGHIDDDDKHMRGREEKAPEEPQPVKMPENNSVVEATWNDVQLEDSLGMEVGYRLIPMVDFQQDGELLGRIRSIRKKFAQDMGFLPPVVHIRDNMDLQPARYRILMKGVEIGSGDAYPGRWLAINPGTAAGTLPGEKTVDPAFGLDAIWIESALKEQAQIQGFTVVEASTVVATHLNHLIGQFSAELFGRQEAQQLLDRVSQEMPKLTEDLVPGVVTLTTLHKVLQNLLAEKVPIRDMRTILETLAEHAPLQSDPHELTAVVRVALGRAITQQWFPGNEEVQVIGLDTALERLLLQALQGGGGLEPGLADRLLAQTQEALSRQEMLGAPPVLLVNHALRPLLSRFLRRSLPQLVVLSNLELSDNRHIRMTATIGGK	soluble
MGHHHHHHMSADFGLIGLAVMGQNLILNAADHGFTVCAYNRTQSKVDHFLANEAKGKSIIGATSIEDFISKLKRPRKVMLLVKAGAPVDALINQIVPLLEKGDIIIDGGNSHFPDSNRRYEELKKKGILFVGSGVSGGEEGARYGPSLMPGGSEEAWPHIKNIFQSISAKSDGEPCCEWVGPAGAGHYVKMVHNGIEYGDMQLICEAYDIMKRLGGFTDKEISDVFAKWNNGVLDSFLVEITRDILKFDDVDGKPLVEKIMDTAGQKGTGKWTAINALDLGMPVTLIGEAVFARCLSALKNERIRASKVLPGPEVPKDAVKDREQFVDDLEQALYASKIISYAQGFMLIREAAATYGWKLNNPAIALMWRGGCIIRSVFLGQITKAYREEPDLENLLFNKFFADAVTKAQSGWRKSIALATTYGIPTPAFSTALSFYDGYRSERLPANLLQAQRDYFGAHTFRVLPECASDNLPVDKDIHINWTGHGGNVSSSTYQA	soluble
MGHHHHHHSHAELSANQSRIDALEKAGQKLIDVNHYAKDEVAARMNEVISLWKKLLEATELKGIKLREANQQQQFNRNVEDIELWLYEVEGHLASDDYGKDLTNVQNLQKKHALLEADVAAHQDRIDGITIQARQFQDAGHFDAENIKKKQEALVARYEALKEPMVARKQKLADSLRLQQLFRDVEDEETWIREKEPIAASTNRGKDLIGVQNLLKKHQALQAEIAGHEPRIKAVTQKGNAMVEEGHFAAEDVK	soluble
MGHHHHHHSHAPNCTRKSTQSDLAFFRFPRDPARCQKWVENCRRADLEDKTPDQLNKHYRLCAKHFETSMICRTSPYRTVLRDNAIPTIFDLTSHLNNP	not soluble
MGHHHHHHSHASELQQHVYDRAHLLSKAEIGKLESLSAKLGAKRDTDFIIITTKSTNGEDIADYTGDFYDRYGKGSTAILTIDMTNREVFIAGFKKAEQYLDNSRLNSIRNTISSDLSNENYFEAFETYIQLSYKDMGIKPGVNPDNI	not soluble
MGHHHHHHSHDKAIKETSILEEYSINWTQKLGAGISGPVRVCVKKSTQERFALKILLDRPKARNEVRLHMMCATHPNIVQIIEVFANSVQFPHESSPRARLLIVMEMMEGGELFHRISQHRHFTEKQASQVTKQIALALRHCHLLNIAHRDLKPENLLFKDNSLDAPVKLCDFGFAKIDQGDLMTPQFTPYYVAPQVLEAQRRHQKEKSGIIPTSPTPYTYNKSCDLWSLGVIIYVMLCGYPPFYSKHHSRTIPKDMRRKIMTGSFEFPEEEWSQISEMAKDVVRKLLKVKPERRLTIEGVLDHPWLNSTEALDNVLPSAQLMMDKAVVAGIQQAHAEQLANMRIQDLKVSLKPLHSVNNPILRKRKLLGTKPKDSVYIHDHENGAEDSNVALEKLRDVIAQCILPQAGENEDEKLNEVMQEAWKYNRECKLLRDTLQSFSWNGRGFTDKVDRLKLAEIVKQVIEEQT	soluble
MGHHHHHHSHGSYANEISSSIIINRPAERLFDLWRKPETLPILMGHFASIEILNHTDSNWRINTPIGSLIEWQARIIDEKPGEYIHWRSLEGARVPNEGRLSFQPAASEAGTAVTLTIRYNPPGGLIGKKIGQMFDMFSRDMLTKTLYRFKKLAEDER	soluble
MGHHHHHHSHIHRIDSTEVIYQPRRKRAKLIGKYLMGDLLGEGSYGKVKEVLDSETLCRRAVKILKKKKLRRIPNGEANVKKEIQLLRRLRHKNVIQLVDVLYNEEKQKMYMVMEYCVCGMQEMLDSVPEKRFPVCQAHGYFCQLIDGLEYLHSQGIVHK	soluble
MGHHHHHHSHKNVVHQLSVTLEDLYNGATRKLALQKNVICDKCEGRGGKKGAVECCPNCRGTGMQIRIHQIGPGMVQQIQSVCMECQGHGERISPKDRCKSCNGRKIVREKKILEVHIDKGMKDGQKITFHGEGDQEPGLEPGDIIIVLDQKDHAVFT	not soluble
MGHHHHHHSHKVYWGVAWDRSDVAVKIYLSFTSDFRKSIRKYIVGDPRFEDIPAGNIRRLIYEWARKEYRNLRRMRESGVRVPRPVAVEANIIVMEFLGEKGYRAPTLAEAVEELDRGEAEAIAAEVLRQAEAIVCRARLVHADLSEYNILVWRGEPWIIDVSQAVPHSHPNAEEFLERDVENLHRFLTGKMGFEFDFDAYLSRLKS	not soluble
MGHHHHHHSHLSPDRRASLLTSLMLVKRDYRYDRVLFWGRILGLVADYYIAQGLSEDQLAPRKTLYSLNCTEWSLLPPATEEMVAQSSVVKGRFMGDPSYEYEHTELQKVNEGEKVFEEEIVVQIKEETRLVSVIDQIDKAVAIIPRGALFKTPFGPTHVNRTFEGLSLSEAKKLSSYFHFREPVELKNKTLLEKADLDPSLDFMDSLEHDIPKGSWSIQMERGNALVVLRSLLWPGLTFYHAPRTKNYGYVYVGTGEKNMDLPFML	not soluble
